Patent US20230287090A1 (FEINSTEIN INSTITUTES FOR MEDICAL RESEARCH, published 2023)
Where a chain is given by its changes, count along the chain named. Read-outs that look alike come from different tables or passages of the source.

T1: TN
T1 single chain: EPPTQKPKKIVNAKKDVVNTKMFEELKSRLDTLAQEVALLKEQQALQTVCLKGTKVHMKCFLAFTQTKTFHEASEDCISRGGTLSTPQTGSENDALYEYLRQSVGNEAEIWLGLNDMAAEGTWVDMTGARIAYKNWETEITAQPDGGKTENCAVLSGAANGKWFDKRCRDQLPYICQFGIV

B1: Clone 27B12 (mAb8) (antibody, V domains shown)
VH: DVKLVESGGGLVKLGGSLKLSCAASGFTFSTDYMSWVRQSPEKRLELVAAINSNGGTTYYPDTVKGRFIISRDNAKNTLYLQMSSLRSEDTALYYCARQVKNGLDYWGQGTSVTVSS
VL: DIQMTQTTSSLSASLGDRVTISCRASQDISNYLNWYQQKPDGTVKLLIYKTSRLHSGVPSRFRGSGSGTDYSLTISNLEEEDVATYFCQQGNTLPPTFGGGTKLEIK
B2: 23F6 (mAb5) (antibody, V domains shown)
VH: B1 VH with T31S, D32S, S40T, S53N, I69T, R87K, A97T, V100G
VL: B1 VL with S30G, Y32L, Y49S, K50Y, R63S, S76T, E80Q, V83I, G91A, T102S
B3: Clone 25B2 (mAb6) (antibody, V domains shown)
VH: B1 VH with K3N, A24D, T31S, D32Y, S40T, T57R, I69T, R87K, V100G
VL: B1 VL with Y32H, V44I, K50Y, R63S, Y71F, T74S, E80Q, V83I, N92K
B4: Clone 18B1 (mAb2) (antibody, V domains shown)
VH: B1 VH with K13N, T31S, S40I, I69T, R87K, V100G, L104M
VL: B1 VL with Y32H, K39R, K50Y, R63S, L73F, S76T, E79D, E80Q, V83I, N92K

Assays:
[1] = molecular target: T2, Recombinant receptor-binding motif (RBM, residues 437-508) of SARS-CoV-2 spike (S) protein with N-terminal … (SARS-CoV-2, UniProt P0DTC2 437-508)
[2] = molecular target: T2, Recombinant receptor-binding motif …; remark: listed apart in the source
TN = molecular target: T1, TN
[3] = molecular target: T2, Recombinant receptor-binding motif …; remark: listed apart in the source

Row | Binder | Kd [1] | Kd [2] | Kd (TN) | Kd [3]
1 | B1 | 17.4 nM | 17.4 nM | 2.02 nM | 57.4 nM
2 | B2 |  |  | 8.03 nM | 
3 | B3 | 180 nM | 180 nM | 0.915 nM | 
4 | B4 | 62.8 nM | 62.8 nM | 0.114 nM | 
